Reference: patent US11666658B2, “Rifamycin analogs and antibody-drug conjugates thereof” (Regeneron Pharmaceuticals, Inc., priority 2018, dated 2023)

T1: biot-AGE-BSA binding to His9-hMSR1 (Homo sapiens, UniProt P21757)
T1 construct: human MSR1 extracellular domain expressed with a N-terminal nonahistidine tag; purchased R&D Systems 2708-MS
T1 sequence (P21757 77-451 limits assumed): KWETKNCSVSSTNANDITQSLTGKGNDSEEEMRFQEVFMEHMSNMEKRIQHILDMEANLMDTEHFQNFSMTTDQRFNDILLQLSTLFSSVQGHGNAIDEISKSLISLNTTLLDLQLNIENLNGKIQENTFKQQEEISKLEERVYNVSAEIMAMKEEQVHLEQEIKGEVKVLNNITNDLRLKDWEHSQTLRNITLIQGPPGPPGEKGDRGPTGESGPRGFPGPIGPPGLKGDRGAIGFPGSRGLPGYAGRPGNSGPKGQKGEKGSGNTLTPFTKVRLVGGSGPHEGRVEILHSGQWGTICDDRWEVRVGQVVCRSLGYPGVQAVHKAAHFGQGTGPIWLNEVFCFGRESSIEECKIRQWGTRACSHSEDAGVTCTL

T2: Ac-LDL binding to His9-hMSR1 (Homo sapiens, UniProt P21757)
T2 construct: human MSR1 extracellular domain expressed with a N-terminal nonahistidine tag; purchased R&D Systems 2708-MS
T2 sequence (P21757 77-451 limits assumed): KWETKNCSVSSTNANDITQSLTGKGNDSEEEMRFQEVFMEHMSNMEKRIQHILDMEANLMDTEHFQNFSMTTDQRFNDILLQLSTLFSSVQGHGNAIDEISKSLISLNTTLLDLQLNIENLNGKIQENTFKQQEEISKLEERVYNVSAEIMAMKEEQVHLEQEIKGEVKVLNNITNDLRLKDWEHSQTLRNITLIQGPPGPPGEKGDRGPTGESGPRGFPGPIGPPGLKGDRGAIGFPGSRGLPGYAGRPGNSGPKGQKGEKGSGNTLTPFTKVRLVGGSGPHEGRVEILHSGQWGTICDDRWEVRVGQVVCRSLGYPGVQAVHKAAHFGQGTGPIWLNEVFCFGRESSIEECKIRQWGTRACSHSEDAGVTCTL

T3: Ox-LDL binding to His9-hMSR1 (Homo sapiens, UniProt P21757)
T3 construct: human MSR1 extracellular domain expressed with a N-terminal nonahistidine tag; purchased R&D Systems 2708-MS
T3 sequence (P21757 77-451 limits assumed): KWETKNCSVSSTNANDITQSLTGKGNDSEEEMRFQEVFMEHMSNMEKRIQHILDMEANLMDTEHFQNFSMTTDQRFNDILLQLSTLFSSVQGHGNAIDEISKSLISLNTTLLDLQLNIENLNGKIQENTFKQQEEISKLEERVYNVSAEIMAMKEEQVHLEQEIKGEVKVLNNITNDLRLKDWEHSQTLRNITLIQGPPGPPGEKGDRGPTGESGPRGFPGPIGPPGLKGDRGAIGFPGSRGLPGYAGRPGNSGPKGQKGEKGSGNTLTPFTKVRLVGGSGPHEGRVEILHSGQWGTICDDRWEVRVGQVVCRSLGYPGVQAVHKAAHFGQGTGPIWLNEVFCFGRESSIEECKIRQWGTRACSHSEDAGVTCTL

T4: MSR1-mediated DiI-AcLDL uptake in HEK293.Myc.hMSR1 cells (Homo sapiens, UniProt P21757)
T4 construct: expressed in transfected cells; host or cells: HEK293 (lentiviral transduction, hygromycin selection)
T4 sequence (P21757 1-451): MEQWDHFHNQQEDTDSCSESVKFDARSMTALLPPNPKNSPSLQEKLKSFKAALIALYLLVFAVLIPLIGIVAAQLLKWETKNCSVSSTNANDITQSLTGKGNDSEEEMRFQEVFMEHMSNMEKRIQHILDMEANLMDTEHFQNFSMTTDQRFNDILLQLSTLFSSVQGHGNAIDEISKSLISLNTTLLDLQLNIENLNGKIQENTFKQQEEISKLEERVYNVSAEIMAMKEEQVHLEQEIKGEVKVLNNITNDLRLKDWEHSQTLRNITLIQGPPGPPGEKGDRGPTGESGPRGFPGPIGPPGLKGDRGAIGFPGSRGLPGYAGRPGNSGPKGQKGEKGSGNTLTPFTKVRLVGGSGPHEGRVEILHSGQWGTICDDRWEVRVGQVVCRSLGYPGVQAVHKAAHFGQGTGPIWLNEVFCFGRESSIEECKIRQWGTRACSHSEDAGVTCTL

B1: H1H21227N-N297D: "The 21227N antibody was also produced as a third version with a N297D mutation" (antibody, V domains shown)
VH: QVQLVQSGAEVKKPGASVKVSCKVSGYTLTELSIHWVRQVPGKGLEWMGGFDPEEGETIFAQEFRDRVTLTEDTSPDTAYMELSSLKSEDAAVYYCTTPRYCNNGICYDYWGQGTLVTVSS
VL: DIQMTQSPSSLSASVGDRVTITCRASQSISNYLNWYQQKPGKAPKLLIYTASSLQSGVPSRFSGSGSGTDFTLTISSLQTEDFATYYCQQSYSNFPITFGQGTRLEIKR
B2: H1H21231N: "Three anti-MSR1 antibodies ... (21227N, 21231N, 21234N) were produced with the original human Fcγ portion" (antibody, V domains shown)
VH: EVQLVESGGGLVQPGGSLRLSCAASGFTFSDHYMDWVRQAPGKGLEWVGRTRNKANSHTTEYTASVTGRFTISRDDSRNSLYLQMNSLKTEDTAVYYCVRAGIIGTLFDYWGQGTLVTVSS
VL: DIQMTQFPSSLSASVGDRVTITCRASQSISSFLNWFQQKPGKAPKFLIYAASSLQSGVPSRFSGSGSGTDFTLTISSLQPEDFATYYCQQSYSSPPITFGQGTRLEIKR
B3: H1H21231N-N297Q: modified version of "21231N (H1H21231N-N297Q) anti-MSR1 antibodies" with "a N297Q single point mutation" (antibody, V domains shown)
VH: EVQLVESGGGLVQPGGSLRLSCAASGFTFSDHYMDWVRQAPGKGLEWVGRTRNKANSHTTEYTASVTGRFTISRDDSRNSLYLQMNSLKTEDTAVYYCVRAGIIGTLFDYWGQGTLVTVSS
VL: DIQMTQFPSSLSASVGDRVTITCRASQSISSFLNWFQQKPGKAPKFLIYAASSLQSGVPSRFSGSGSGTDFTLTISSLQPEDFATYYCQQSYSSPPITFGQGTRLEIKR
B4: H1H27734P-N297Q: one of "Twelve anti-MSR1 antibodies" that "bound to parental HEK293 cells"; human IgG1 Fc with N297Q mutation (antibody, V domains shown)
VH: EVQLVESRGGLVQPGGSLRLSCAASGFTFSSYAMSWVRQAPGKGLEWVSAISGSGGSTFYADSVKGRFTISRDNSKNTVYLQMNSLRAEDTAVYYCAKALVLRFLEWLGDYWGQGTLVTVSS
VL: DIQMTQSPSTLSASVGDRVTITCRASQSISSWLAWFQQKPGKAPKLLIYKASSLESGVPSRFSGSGSGTEFTLTISSLQPDDFATYYCQQYKSYWTFGQGTKVEIKR
B5: H1H27739P-N297Q: anti-MSR1 antibody; "antibodies H1H27739P-N297Q and H1H27734P-N297Q showed no inhibition of DiI-AcLDL uptake" (antibody, V domains shown)
VH: EVQLVESGGGLVQPGGSLRLSCTASGFTFSSYAMSWVRQAPGKGLEWVSAISGTGSSTYFTDSVKGRFAISRDNSKNTLYLQMNSLRAEDTAVYYCAKDGEWLSTVTLFDYWGQGTLVTVSS
VL: EIVMTQSPATLSVSPGERATLSCRASQSVSSNLAWYQQKPGQAPRLLIYGASTRATGIPARFSGSGSGTDFTLTISSLQSEDFALYYCQQYFIWPPHPTFGPGTKVDIKR
B6: H2aM21229N: one of "Twelve anti-MSR1 antibodies"; "an 'H2aM' antibody has a mouse IgG2a Fc" (antibody, V domains shown)
VH: EVQLVESGGGLVKPGGSLRLSCAASGFTFSRYSMNWVRQAPGKGLEWVSSISSSSSYIYYGDTVKGRFTISRDNAKKSLYLQMNSLRAEDTAVYYCVRDRGQLVLYFDYWGQGTLVTVSS
VL: DIQMTQSPASLSTSIRDRVTITCRASLSISSFLNWFQQRPGKAPKLLIYVASNLQSGVPSRFSDSGSGTDFTLTISSLQPEDFATYYCQQNYSTPPITFGQGTRLEIK

Assays:
[1] = molecular target: T1, biot-AGE-BSA binding to His9-hMSR1; assay: Competition sandwich ELISA, biot-AGE-BSA; settings: anti-MSR1 antibody 300 nM, 400 pM biot-AGE-BSA
Experimental: (§1) The ability of anti-MSR1 antibodies disclosed herein to block the binding of various ligands to human MSR1 was measured using three competition sandwich ELISA assays. The ligands used in the assays were: (1) acetylated LDL (Ac-LDL), (2) oxidized LDL (Ox-LDL), and (3) advanced glycation end-products of bovine serum albumin (AGE-BSA).
For the assay, recombinant monomeric human MSR1 protein comprised of a portion of the human MSR1 extracellular domain expressed with a N-terminal 9-Histidine tag (SEQ ID NO: 688) (His9-hMSR1; R&D Systems, Cat #2708-MS) was coated at a concentration of […] in PBS on a 96-well microtiter plate overnight at 4° C. for use in competition ELISA assays with Ac-LDL, Ox-LDL, or biotinylated-AGE-BSA (“biot-AGE-BSA”). […] Anti-MSR1 antibodies or isotype control antibodies were serially diluted as appropriate for each tested ligand and added in duplicate for each serial dilution set to microtiter plates coated with His9-hMSR1. Buffer alone was also added to wells on each coat. After 1 hour incubation at room temperature, without wash, a final constant concentration of 50 pM Ac-LDL (Life Technologies/ThermoFisher Scientific, Cat #L-35354), 5 nM or 10 nM Ox-LDL (Alfa Aesar, Cat #J65591), or 400 pM biot-AGE-BSA (R&D Systems, Cat #BT4127) were added to plates with His9-hMSR1, and the plates were incubated for an additional 1 hour at room temperature. (Concentrations of Ac-LDL, Ox-LDL and biot-AGE-BSA for antibody inhibition assays were selected from the approximate midway point within the linear portion of individual binding curves of Ac-LDL, Ox-LDL or biot-AGE-BSA to plate-coated His9-hMSR1.) Wells were washed, and plate-bound Ac-LDL or Ox-LDL were detected with anti-LDL rabbit antibody (Alfa Aesar, Cat #J64398) in combination with anti-rabbit IgG (H+L) specific donkey polyclonal antibodies conjugated with horseradish peroxidase (HRP) (JacksonImmunoResearch, Cat #711-035-152) and biot-AGE-BSA was detected with a streptavidin-HRP (ThermoFisher Scientific, Cat #N200). Plates were developed using TMB substrate solution (BD Biosciences, Cat #51-2606KC & Cat #51-2607KC) according to manufacturer's recommendation and absorbance at 450 nm was measured on a Victor™ Multilabel Plate Reader (PerkinElmer™). This assay was conducted in four different assay runs.
(§2) Data analysis was performed using a sigmoidal dose-response model within Prism™ software (GraphPad). Percent blockade at maximum concentration of the antibody tested in each assay was calculated as an indicator of the ability of the antibodies to block the binding of Ac-LDL, Ox-LDL or biot-AGE-BSA to His9-hMSR1 on the plate relative to the baseline of the assay. In the calculation, binding signal of the same concentrations of Ac-LDL, Ox-LDL, or biot-AGE-BSA used for the assays in the absence of antibody was referenced as 100% binding or 0% blocking, while the baseline of the assay, defined as binding signal of the sample of buffer without MSR1 ligands or antibody, was referenced as 0% binding or 100% blocking. The maximum percent blockade at the highest concentration of antibody tested in each assay are reported for all antibodies. Negative percent blockade numbers reflected higher MSR1 ligands binding to plate coated His9-hMSR1 in the presence of antibodies.

[2] = molecular target: T2, Ac-LDL binding to His9-hMSR1; assay: Competition sandwich ELISA, Ac-LDL; settings: anti-MSR1 antibody 100 nM, 50 pM Ac-LDL
Experimental: as §1
(§3) Anti-MSR1 antibodies or isotype control antibodies were serially diluted as appropriate for each tested ligand and added in duplicate for each serial dilution set to microtiter plates coated with His9-hMSR1. Buffer alone was also added to wells on each coat. […] This assay was conducted in four different assay runs.
as §2, with “antibodies.” for “antibodies. Negative percent blockade numbers reflected higher MSR1 ligands binding to plate coated His9-hMSR1 in the presence of antibodies.”

[3] = molecular target: T3, Ox-LDL binding to His9-hMSR1; assay: Competition sandwich ELISA, Ox-LDL; settings: anti-MSR1 antibody 500 nM, Ox-LDL 10 nM
Experimental: as §1, §3
as §2, with “antibodies.” for “antibodies. Negative percent blockade numbers reflected higher MSR1 ligands binding to plate coated His9-hMSR1 in the presence of antibodies.”

[4] = molecular target: T4, MSR1-mediated DiI-AcLDL uptake in HEK293.Myc.hMSR1 cells; assay: Ligand uptake assay, DiI-AcLDL; type: cell-based; settings: for IC50, Dil-Acetylated LDL / % Inhibition, Dil-Acetylated LDL: 10 μg/mL DiI-AcLDL; for % Inhibition, Dil-Acetylated LDL: maximum inhibition of uptake
Experimental: The resulting cell line, referred to here as “HEK293.Myc.hMSR1”, was selected and maintained in DMEM containing 10% FBS, NEAA, penicillin/streptomycin, L-glutamine, and 100 μg/mL hygromycin.
After 30 minutes, either oxidized or acetylated low-density lipoprotein (LDL) labeled with 1,1′ dioctadecyl-3,3,3′,3′-tetramethylindocarbocyanine perchlorate (referred to as “DiI-OxLDL” or “DiI-AcLDL,” respectively) was added to the cells at a constant concentration of 10 μg/mL. […] Results were analyzed using nonlinear regression (4-parameter logistics) with the Prism 7 program to obtain EC50 and IC50 values. The percentage of inhibition was calculated with the Relative Fluorescent Unit (RFU) values by using the following equation: […]
In the equation, “RFUBaseline” is the fluorescence value from the cells treated with 10 μg/mL ligand without antibodies, “RFUInhibition” is the minimum fluorescence value with for a particular antibody with 10 μg/mL ligand, and “RFUBackground” is the fluorescence value from cells without any ligand or antibodies.

Row | Molecule | % Blocking of biot-AGE-BSA binding to His9-hMSR1 [1] | % Blocking of Ac-LDL binding to His9-hMSR1 [2] | % Blocking of Ox-LDL binding to His9-hMSR1 [3] | inhibition of DiI-AcLDL uptake (in words) [4] | IC50, Dil-Acetylated LDL [4] | % Inhibition, Dil-Acetylated LDL [4]
1 | B1 | 97% | 101% | 99% |  |  | 
2 | B2 | −44% | −62% | 22% |  |  | 
3 | B3 | −50% | −60% | 26% |  |  | 
4 | B4 |  |  |  | no inhibition of DiI-AcLDL uptake | no inhibition | no inhibition
5 | B5 |  |  |  | no inhibition of DiI-AcLDL uptake | no inhibition | no inhibition
6 | B6 |  |  |  | no inhibition of DiI-AcLDL uptake | no inhibition | no inhibition
